Consider one molecule from US20150337051A1 (MORPHOTEK, published 2015).

Assay [1] addresses T1, recombinant CHO TEM-1 Fc fusion protein (UniProt Q9HCU0).
T1 sequence (looked up): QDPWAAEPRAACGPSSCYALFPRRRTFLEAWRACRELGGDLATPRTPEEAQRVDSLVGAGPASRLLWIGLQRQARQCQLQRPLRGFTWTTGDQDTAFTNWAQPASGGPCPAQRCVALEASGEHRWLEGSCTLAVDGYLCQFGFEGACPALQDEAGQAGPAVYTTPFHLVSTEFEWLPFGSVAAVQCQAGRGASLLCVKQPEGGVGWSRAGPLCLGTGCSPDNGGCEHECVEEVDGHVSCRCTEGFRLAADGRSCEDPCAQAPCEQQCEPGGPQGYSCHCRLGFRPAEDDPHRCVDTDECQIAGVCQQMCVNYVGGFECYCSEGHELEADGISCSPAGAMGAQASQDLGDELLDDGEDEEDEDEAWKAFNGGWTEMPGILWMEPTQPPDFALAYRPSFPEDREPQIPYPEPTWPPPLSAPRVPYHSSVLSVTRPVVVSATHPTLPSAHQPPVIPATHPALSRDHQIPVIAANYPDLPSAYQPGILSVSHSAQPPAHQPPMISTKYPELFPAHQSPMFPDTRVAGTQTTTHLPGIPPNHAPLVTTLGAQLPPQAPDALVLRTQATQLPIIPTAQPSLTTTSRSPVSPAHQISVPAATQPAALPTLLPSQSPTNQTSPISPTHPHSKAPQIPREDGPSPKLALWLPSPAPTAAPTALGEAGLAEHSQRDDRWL
In words: ECL sandwich, competition: biotin-9G5 capture, sulfo-TAG-15F8 detection; MORAb-004 spike 50 µg/mL, TEM-1-Fc QC 0.4 ng/mL; recovery at 0 µg/mL MORAb-004: 109.

The target in assay [2] is T1, recombinant CHO TEM-1 Fc fusion protein. As to the kind of experiment: ECL sandwich, competition: biotin-9G5 capture, sulfo-TAG-15F8 detection; MORAb-004 spike 50 µg/mL, TEM-1-Fc QC 2 ng/mL; recovery at 0 µg/mL MORAb-004: 106.
Assay [3] shares this target. As to the kind of experiment: ECL sandwich, competition: biotin-9G5 capture, sulfo-TAG-15F8 detection; MORAb-004 spike 25 µg/mL, TEM-1-Fc QC 2 ng/mL; recovery at 0 µg/mL MORAb-004: 106.
Assay [4] shares this target. As to the kind of experiment: ECL sandwich, competition: biotin-9G5 capture, sulfo-TAG-15F8 detection; MORAb-004 spike 0.78125 µg/mL, TEM-1-Fc QC 0.4 ng/mL; recovery at 0 µg/mL MORAb-004: 109.
Assay [5] has the same target. As to the kind of experiment: ECL sandwich, competition: biotin-9G5 capture, sulfo-TAG-15F8 detection; MORAb-004 spike 0.78125 µg/mL, TEM-1-Fc QC 2 ng/mL; recovery at 0 µg/mL MORAb-004: 106.
Assay [6] has the same target. As to the kind of experiment: ECL sandwich, competition: biotin-9G5 capture, sulfo-TAG-15F8 detection; MORAb-004 spike 6.25 µg/mL, TEM-1-Fc QC 0.4 ng/mL; recovery at 0 µg/mL MORAb-004: 109.
Assay [7] has the same target. As to the kind of experiment: ECL sandwich, competition: biotin-9G5 capture, sulfo-TAG-15F8 detection; MORAb-004 spike 3.125 µg/mL, TEM-1-Fc QC 0.08 ng/mL; recovery at 0 µg/mL MORAb-004: 114.
The target is the same in assay [8]. As to the kind of experiment: ECL sandwich, competition: biotin-9G5 capture, sulfo-TAG-15F8 detection; MORAb-004 spike 0.78125 µg/mL, TEM-1-Fc QC 50 ng/mL; recovery at 0 µg/mL MORAb-004: 104.
Assay [9] shares this target. As to the kind of experiment: ECL sandwich, competition: biotin-9G5 capture, sulfo-TAG-15F8 detection; MORAb-004 spike 25 µg/mL, TEM-1-Fc QC 50 ng/mL; recovery at 0 µg/mL MORAb-004: 104.
The target is the same in assay [10]. As to the kind of experiment: ECL sandwich, competition: biotin-9G5 capture, sulfo-TAG-15F8 detection; MORAb-004 spike 12.5 µg/mL, TEM-1-Fc QC 0.4 ng/mL; recovery at 0 µg/mL MORAb-004: 109.
Assay [11] shares this target. As to the kind of experiment: ECL sandwich, competition: biotin-9G5 capture, sulfo-TAG-15F8 detection; MORAb-004 spike 6.25 µg/mL, TEM-1-Fc QC 10 ng/mL; recovery at 0 µg/mL MORAb-004: 105.
Assay [12] shares this target. As to the kind of experiment: ECL sandwich, competition: biotin-9G5 capture, sulfo-TAG-15F8 detection; MORAb-004 spike 6.25 µg/mL, TEM-1-Fc QC 2 ng/mL; recovery at 0 µg/mL MORAb-004: 106.
Assay [13] has the same target. In words: ECL sandwich, competition: biotin-9G5 capture, sulfo-TAG-15F8 detection; MORAb-004 spike 3.125 µg/mL, TEM-1-Fc QC 0.4 ng/mL; recovery at 0 µg/mL MORAb-004: 109.
Assay [14] shares this target. In words: ECL sandwich, competition: biotin-9G5 capture, sulfo-TAG-15F8 detection; MORAb-004 spike 50 µg/mL, TEM-1-Fc QC 10 ng/mL; recovery at 0 µg/mL MORAb-004: 105.
The target is the same in assay [15]. As to the kind of experiment: ECL sandwich, competition: biotin-9G5 capture, sulfo-TAG-15F8 detection; MORAb-004 spike 25 µg/mL, TEM-1-Fc QC 10 ng/mL; recovery at 0 µg/mL MORAb-004: 105.

B1: MORAb-004 (antibody, INN chains, looked up, V domains shown)
VH: QVQLQESGPGLVRPSQTLSLTCTASGYTFTDYVIHWVKQPPGRGLEWIGYINPYDDDTTYNQKFKGRVTMLVDTSSNTAYLRLSSVTAEDTAVYYCARRGNSYDGYFDYSMDYWGSGTPVTVSS
VL: DIQMTQSPSSLSASVGDRVTITCRASQNVGTAVAWLQQTPGKAPKLLIYSASNRYTGVPSRFSGSGSGTDYTFTISSLQPEDIATYYCQQYTNYPMYTFGQGTKVQIK
On to B1, for which the % Recovery of TEM-1 QCs spiked with MORAb-004 in assay [1] was determined as 91.9%; in assay [2], 89.9%; in assay [3], 89.1%; in [4] it was 105%; in assay [5], 99.9%; in [6] it was 98%. For the same molecule, the % Recovery of TEM-1 QCs spiked with MORAb-004 in [7] stood at 103%; in assay [8] it was 99.3%; in [9], 92.8%; in [10], 96.5%; in assay [11] it was 94.4%; in assay [12] it was 94.2%. The % Recovery of TEM-1 QCs spiked with MORAb-004 in assay [13] was 101%; in [14], 87%; in [15] it was 91.3%.
